Test results from article PMC6168201 (Neuron, 2018).

B1: Pcdh15 EC1-3 Asp255Lys/Lys345Asp (domain or fragment)
chain: not shown
B2: Pcdh15 EC1-3 (wild type) (domain or fragment)
chain: not shown
B3: Pcdh15 EC1-3 Leu138Phe (domain or fragment)
chain: not shown

Assays:
SEC = biological target: the molecule itself; assay: SEC
SEC-MALS = biological target: the molecule itself; assay: SEC-MALS
AUC = biological target: the molecule itself; assay: AUC

Protein	stoichiometry N (SEC)	stoichiometry N (SEC-MALS)	Kd (AUC) [µM]
B1	2	–	–
B2	–	2	1.2
B3	–	–	15.3
